The results in this text go back to patent publication US20030148958A1 (PROCTER AND GAMBLE, published 2003).

Ends that are not written are not given here.

In assay [1] the target is T1, CRF2R.
T1 sequence (Q13324 whole entry, species assumed, looked up): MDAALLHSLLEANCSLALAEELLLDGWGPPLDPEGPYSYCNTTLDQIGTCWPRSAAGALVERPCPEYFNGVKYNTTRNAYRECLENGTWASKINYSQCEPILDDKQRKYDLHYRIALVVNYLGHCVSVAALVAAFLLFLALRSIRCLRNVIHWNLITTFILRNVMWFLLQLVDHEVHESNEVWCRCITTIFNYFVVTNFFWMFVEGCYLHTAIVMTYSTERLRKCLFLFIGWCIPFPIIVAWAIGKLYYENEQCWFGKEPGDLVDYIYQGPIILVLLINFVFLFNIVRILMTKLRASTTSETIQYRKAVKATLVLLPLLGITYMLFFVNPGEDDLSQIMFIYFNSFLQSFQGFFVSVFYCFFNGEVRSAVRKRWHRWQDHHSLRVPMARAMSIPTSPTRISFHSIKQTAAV
In words: cell-based or functional assay.

The target in assay [2] is CRF1R. In words: cell-based or functional assay.
Throughout, for CRF1R Emax %: reference of the scale not given here.
Throughout, for CRF2R Emax %: reference of the scale not given here.

In the case of HHHHHHIVLSLDVPIGLLQILLEQARARAAREQATTNARILARN-NH2 [SEQ ID NO 296], in assay [1], the “CRF2R EC50” value came to 6.66 nM and the “CRF2R Emax %” value is 65%. In assay [2], the “CRF1R EC50” value was found to be 100 nM and the “CRF1R Emax %” value came to 4%.
In the same order, the values of ZGPPISIDLPYQLLRKVIEIEKQEKEKQQAANNARLLARI (C-terminal amide) [SEQ ID NO 286] are 13.5 nM, 92.5%, 1000 nM and 19.2%.
ZGPPISIDLPYHLLRKVIEIEKQEKEKQQAANNALLLATI (C-terminal amide) [SEQ ID NO 313]: in assay [1], the “CRF2R EC50” value was 11.1 nM and the “CRF2R Emax %” value was determined as 95%. In assay [2], the “CRF1R EC50” value is 704 nM and the “CRF1R Emax %” value was 87.1%.
Taken in the same sequence, the figures for ZGPPISIDLPQILLRKVIEIEKQEKEKQQAANNARLLARI (C-terminal amide) [SEQ ID NO 294] were 100 nM, 100%, 1000 nM and 13.6%.
Regarding ZGPPISIDLPIFLLRKMIEIEKQEKEKQQAANNALLLATI (C-terminal amide) [SEQ ID NO 298], in assay [1], the “CRF2R EC50” value amounted to 82 nM and the “CRF2R Emax %” value was 98.8%. Also, in assay [2], the “CRF1R EC50” value was 1000 nM and the “CRF1R Emax %” value stood at 20.1%.
Taken in the same sequence, the figures for ZGPPISIDLPQILLRKVIEIEKQEKEKQQAANNALLLATI (C-terminal amide) [SEQ ID NO 299] were 46.4 nM, 71.5%, 1000 nM and 10.2%.
With ZGPPISIDLPFFLLRKVIEIEKQEKEKQQAANNALLLATI (C-terminal amide) [SEQ ID NO 317], in assay [1], the “CRF2R EC50” value worked out at 9.3 nM and the “CRF2R Emax %” value is 88.3%. Further, in assay [2], the “CRF1R EC50” value amounted to 188 nM and the “CRF1R Emax %” value worked out at 100%.
For the molecule ZGPPISIDLPYHLLRKVIEIEKQEKEKQQAANNALLLDTI (C-terminal amide) [SEQ ID NO 312], in assay [1], the “CRF2R EC50” value is 14.1 nM and the “CRF2R Emax %” value is 95%. In assay [2], the “CRF1R EC50” value was 870 nM and the “CRF1R Emax %” value is 62%.
In the same order, the values of ZGPPISIDLPYWLLRKMIEIEKQEKEKQQAANNALLLDTI (C-terminal amide) [SEQ ID NO 310] are 8.7 nM, 87.5%, 1000 nM and 45.3%.
Regarding ZGPPISIDLPIILLRKMIEIEKQEKEKQQAANNARLLARI (C-terminal amide) [SEQ ID NO 290], in assay [1], the “CRF2R EC50” value came to 100 nM and the “CRF2R Emax %” value came out at 100%. Besides, in assay [2], the “CRF1R EC50” value stood at 1000 nM and the “CRF1R Emax %” value was 6.4%.
On to ZGPPISIDLPFFLLRKVIEIEKQEKEKQQAANNALLLDTI (C-terminal amide) [SEQ ID NO 316], for which, in assay [1], the “CRF2R EC50” value stood at 10.2 nM and the “CRF2R Emax %” value was 94.5%. Also, in assay [2], the “CRF1R EC50” value worked out at 222 nM and the “CRF1R Emax %” value stood at 92.3%.
In the case of ZGPPISIDLPYHLLRKMIEIEKQEKEKQQAANNALLLDTI (C-terminal amide) [SEQ ID NO 314], in assay [1], the “CRF2R EC50” value was determined as 10.3 nM and the “CRF2R Emax %” value turned out to be 99.8%. For the same molecule, in assay [2], the “CRF1R EC50” value is 978 nM and the “CRF1R Emax %” value worked out at 82.4%.
For the molecule ZGPPISIDLPTWLLRKVIEIEKQEKEKQQAANNARLLARI (C-terminal amide) [SEQ ID NO 291], in assay [1], the “CRF2R EC50” value was found to be 100 nM and the “CRF2R Emax %” value is 63.8%. Besides, in assay [2], the “CRF1R EC50” value turned out to be 1000 nM and the “CRF1R Emax %” value was determined as 4.75%.
ZGPPISIDLPYWLLRKMIEIEKQEKEKQQAANNARLLARI (C-terminal amide) [SEQ ID NO 289]: in assay [1], the “CRF2R EC50” value stood at 12.2 nM and the “CRF2R Emax %” value was 97.3%. For the same molecule, in assay [2], the “CRF1R EC50” value stood at 1000 nM and the “CRF1R Emax %” value was 69.5%.
Taken in the same sequence, the figures for ZGPPISIDLPIILLRKVIEIEKQEKEKQQAANNARLLARI (C-terminal amide) [SEQ ID NO 295] were 55 nM, 67.6%, 1000 nM and 5.3%.
Turning to ZGPPISIDLPTWLLRKMIEIEKQEKEKQQAANNARLLARI (C-terminal amide) [SEQ ID NO 292], in assay [1], the “CRF2R EC50” value came to 100 nM and the “CRF2R Emax %” value is 86.1%. Moreover, in assay [2], the “CRF1R EC50” value stood at 1000 nM and the “CRF1R Emax %” value came out at 7%.
Turning to ZGPPISIDLPYWLLRKVIEIEKQEKEKQQAANNALLLDTI (C-terminal amide) [SEQ ID NO 311], in assay [1], the “CRF2R EC50” value is 11.7 nM and the “CRF2R Emax %” value amounted to 100%. In addition, in assay [2], the “CRF1R EC50” value turned out to be 1000 nM and the “CRF1R Emax %” value is 29.7%.
In the same order, the values of ZGPPISIDLPQILLRKVIEIEKQEKEKQQAANNRLLLDTI (C-terminal amide) [SEQ ID NO 293] are 40.3 nM, 87%, 520 nM and 95.3%.
Regarding ZGPPISIDLPQALLRKMIEIEKQEKEKQQAANNRLLLDTI (C-terminal amide) [SEQ ID NO 302], in assay [1], the “CRF2R EC50” value turned out to be 36.2 nM and the “CRF2R Emax %” value was found to be 100%. Besides, in assay [2], the “CRF1R EC50” value is 366 nM and the “CRF1R Emax %” value came out at 100%.
For ZGPPISIDLPIALLRKMIEIEKQEKEKQQAANNRLLLDTI (C-terminal amide) [SEQ ID NO 306], in assay [1], the “CRF2R EC50” value is 27.6 nM and the “CRF2R Emax %” value was found to be 100%. Moreover, in assay [2], the “CRF1R EC50” value worked out at 608 nM and the “CRF1R Emax %” value was determined as 97.7%.
ZGPPISIDLPIILLRKVIEIEKQEKEKQQAANNRLLLDTI (C-terminal amide) [SEQ ID NO 297]: in assay [1], the “CRF2R EC50” value was 100 nM and the “CRF2R Emax %” value came to 88.3%. Further, in assay [2], the “CRF1R EC50” value is 1000 nM and the “CRF1R Emax %” value was 27.2%.
As for ZGPPISIDLPAALLRKMIEIEKQEKEKQQAANNRLLLDTI (C-terminal amide) [SEQ ID NO 303], in assay [1], the “CRF2R EC50” value came out at 27.2 nM and the “CRF2R Emax %” value was 100%. In addition, in assay [2], the “CRF1R EC50” value came to 582 nM and the “CRF1R Emax %” value was found to be 100%.
Consider ZGPPISIDLPTALLRKMIEIEKQEKEKQQAANNRLLLDTI (C-terminal amide) [SEQ ID NO 301], for which, in assay [1], the “CRF2R EC50” value came out at 50.5 nM and the “CRF2R Emax %” value came to 88.4%. Moreover, in assay [2], the “CRF1R EC50” value is 690 nM and the “CRF1R Emax %” value turned out to be 84.1%.
In the same order, the values of ZGPPISIDLPLALLRKMIEIEKQEKEKQQAANNRLLLDTI (C-terminal amide) [SEQ ID NO 308] are 3.3 nM, 72.8%, 63.5 nM and 100%.
Turning to ZGPPISIDLPFALLRKMIEIEKQEKEKQQAANNRLLLDTI (C-terminal amide) [SEQ ID NO 307], in assay [1], the “CRF2R EC50” value amounted to 5.82 nM and the “CRF2R Emax %” value is 96.5%. For the same molecule, in assay [2], the “CRF1R EC50” value amounted to 78.4 nM and the “CRF1R Emax %” value turned out to be 92.7%.
Regarding ZGPPISIDLPHALLRKMIEIEKQEKEKQQAANNRLLLDTI (C-terminal amide) [SEQ ID NO 304], in assay [1], the “CRF2R EC50” value turned out to be 19.3 nM and the “CRF2R Emax %” value came to 92.5%. Further, in assay [2], the “CRF1R EC50” value amounted to 116 nM and the “CRF1R Emax %” value came out at 100%.
In the same order, the values of ZGPPISIDLPVALLRKMIEIEKQEKEKQQAANNRLLLDTI (C-terminal amide) [SEQ ID NO 305] are 35.5 nM, 95.2%, 1000 nM and 59.5%.
As for ZGPPISIDLPYALLRKMIEIEKQEKEKQQAANNRLLLDTI (C-terminal amide) [SEQ ID NO 309], in assay [1], the “CRF2R EC50” value worked out at 5.55 nM and the “CRF2R Emax %” value was 99.9%. For the same molecule, in assay [2], the “CRF1R EC50” value is 108 nM and the “CRF1R Emax %” value turned out to be 96.3%.
On to ZGPPISIDLPYQLLRKMIEIEKQEKEKQQAANNARLLAR (C-terminal amide) [SEQ ID NO 287], for which, in assay [1], the “CRF2R EC50” value amounted to 11.3 nM and the “CRF2R Emax %” value came out at 100%. Further, the “CRF1R EC50” value in assay [2] is 1000 nM.
ZGPPISIDLPYHLLRKMIEIEKQEKEKQQAANNALLLAT (C-terminal amide) [SEQ ID NO 315]: in assay [1], the “CRF2R EC50” value came out at 9.35 nM and the “CRF2R Emax %” value stood at 81.7%. In assay [2], the “CRF1R EC50” value came to 454 nM and the “CRF1R Emax %” value turned out to be 100%.
ZGPPISIDLPYQLLRKMIEIEKQEKEKQQAANNARLLAR (C-terminal amide) [SEQ ID NO 288]: in assay [1], the “CRF2R EC50” value was found to be 14.7 nM and the “CRF2R Emax %” value stood at 100%. Besides, in assay [2], the “CRF1R EC50” value was found to be 838 nM.
Consider IVLSLDVPIGLLQKVIEIEKQEKEKQQATTNARILARV-NH2 [SEQ ID NO 300], for which, in assay [1], the “CRF2R EC50” value is 17.1 nM and the “CRF2R Emax %” value stood at 100%. In assay [2], the “CRF1R EC50” value was 1000 nM and the “CRF1R Emax %” value was 7.95%.
